Data reported in the RNAGym collection of RNA variant scans (doi:10.7554/elife.80360).

B1: HDV Ribozyme (parent)
chain: GGCCGGCAUGGUCCCAGCCUCCUCGCUGGCGCCGGCUGGGCAACAUUCCGAGGGGACCGUCCCCUCGGUAAUGGCGAAUGGGACCCA

Variants of: B1
Experiment: self-cleavage, relative activity (ratio to wild type); higher = more cleavage; co-transcriptional

Variant | self-cleavage
GGCCAGCAUGGUCCCAGCCUCCUCGCUGGCGCCGGCAGGGCAACAUUCCGAGGGGACCGUCCCCUCGGUAAUGGCGAAUGGGACCCA [G5A U37A] | 0
GGCCGGCAUGGUCCCAGCCUCCUCGCUGGCACCGGCUGGGCAACAUUCCGAGGGGACCGUCCCCUCGGUAAUGGCGAAUUGGACCCA [G31A G80U] | 0.104
GGCCGGCAUGGUCCCAGCCUCCUCGCUGGGGCCGGCUGGGCAACAUUCCGAGGGUACCGUCCCCUCGGUAAUGGCGAAUGGGACCCA [C30G G55U] | 0.0225
GGCCGGCAAGGUCCCAGGCUCCUCGCUGGCGCCGGCUGGGCAACAUUCCGAGGGGACCGUCCCCUCGGUAAUGGCGAAUGGGACCCA [U9A C18G] | 0.369
GGCCGGCAUGGUCCCAGCCUCGUCGCUGGCGCCGGCUGGGCAACAUUCCCAGGGGACCGUCCCCUCGGUAAUGGCGAAUGGGACCCA [C22G G50C] | 0
GGCCGGCAUGGUCCCAGCCUCCUCGCUGGUGCCGGCUGGGCAACAUUCCGAGGGGACCGUCCCCUCGGUAAUGGCGGAUGGGACCCA [C30U A77G] | 0.489
GGCCGGCAUGGUCCCAGCCUCCUCGCUGGCGCCGGCUGGGCAACAUUCCGAGGGGACCGUCCCCUCGGUAAAGACGAAUGGGACCCA [U72A G74A] | 0.373
GGCCGGCAUGGGCCCAGCCUCCUCGCUGGCGCCGGCUGGGCAACUUUCCGAGGGGACCGUCCCCUCGGUAAUGGCGAAUGGGACCCA [U12G A45U] | 0.684
GGGCGGCAUGGUCCCAGCCUCCUCGCUGGCGCCGGCUGGGCAACAUUCCGAGGGGACCGUCCCCUCGGUAAUGACGAAUGGGACCCA [C3G G74A] | 0.114
GGCCGGCAUGGUCCCAGCCUCCUCGCUGGCGCCGGCUGGGCAACAUUCGGAGGGGACCGUCCUCUCGGUAAUGGCGAAUGGGACCCA [C49G C63U] | 0.815
GGCCGGCAUGGUCCCAGACUCCUCGCUGGCGCCGGCUGGGCAACAUUCCGAGGGGACCGUCCCCUCGGUAUUGGCGAAUGGGACCCA [C18A A71U] | 0
GGCCGGCAUGGUCCCAGCCUCCUCGCUGGCGCCGGCGGGGCAACAUUCCGAGGGGCCCGUCCCCUCGGUAAUGGCGAAUGGGACCCA [U37G A56C] | 0
GGCCGGCAUGGUCCUAGCCUCCUCGCUGGCGCCGGCUGGGCAACAUUCCGAGGGGACCGUCCCCUCGAUAAUGGCGAAUGGGACCCA [C15U G68A] | 0.759
GGCCGGCAUGGUCCCAGCCUCCGCGCUGGCGCCAGCUGGGCAACAUUCCGAGGGGACCGUCCCCUCGGUAAUGGCGAAUGGGACCCA [U23G G34A] | 0.0811
GGCCGGCAUGGGCCCAGCCUCCUCGCUGGCGCCGGCUGGUCAACAUUCCGAGGGGACCGUCCCCUCGGUAAUGGCGAAUGGGACCCA [U12G G40U] | 0.655
GGCCGGCAAGGUCCCAGCCUCCUCGCUGGCGCCGGCUGGGCAACAUUCCGAGCGGACCGUCCCCUCGGUAAUGGCGAAUGGGACCCA [U9A G53C] | 0.974

Variant | self-cleavage
GGCCGGCAUGGUCCCAGCCUCCUCGCUGGCGCCGGCUGGGCAGCAUUCCGAGGGGACCGUCCCCUCGGUAAUGGCGAAUGGUACCCA [A43G G82U] | 0.189
GGCCGGCAUGGUCCCAGCCUGCUCGCUGGCGCCGGCUGGGCAACACUCCGAGGGGACCGUCCCCUCGGUAAUGGCGAAUGGGACCCA [C21G U46C] | 0.104
GGCCGGCAUGGUCCCAGCCUCCUCGCUGGCGCCGGCAGGGCAACAUUCCGAGGGGACCGUCCCCUCGGUAAUGGCUAAUGGGACCCA [U37A G76U] | 0.469
GGCCGGCAUGGUCCCAGCCUGCUCGCUGGCGCCGGCUGGGCAACAUUCCGAGGGGACCGUCCCCUCGGUAAUGGAGAAUGGGACCCA [C21G C75A] | 0.0415
GGCCGGCCUGGUCCCAGCCUCUUCGCUGGCGCCGGCUGGGCAACAUUCCGAGGGGACCGUCCCCUCGGUAAUGGCGAAUGGGACCCA [A8C C22U] | 0.426
GGCCGGCAUGGUCCCAGCCGCCUCGCUGGCGCCGGCUGGGCAACAUUCCGAGGGGACGGUCCCCUCGGUAAUGGCGAAUGGGACCCA [U20G C58G] | 0.266
GGCCGGCAUGGUCCCAGCCUCCUCGCUGGCGCCGGCUGUUCAACAUUCCGAGGGGACCGUCCCCUCGGUAAUGGCGAAUGGGACCCA [G39U G40U] | 0.451
GGCCGGCAUGGUCCCAGCCUCCUCGCUGGCGCCGGCUGGGCAACAUUCAGAGGGGACCGUCCCCUCGGUAAUGGCGAAUGAGACCCA [C49A G81A] | 0.242
GGCCGGCAUGGUCCCAGCCUCUUCGCUGGCGCCGGCUGGGCAACAUUCCGGGGGGACCGUCCCCUCGGUAAUGGCGAAUGGGACCCA [C22U A51G] | 0.721
GGCCGGCAUGGUCCCAGCCUCCUCGCUGGCGCCGGCUGGGCAACAUUUCGAGGGGACCGUCCCCUCGGUAAUGGCGAAUGGGACACA [C48U C85A] | 1.03
GGCCGGCAUGGUCCCAGCCUCCUCGCGGGCGCCGGCUGGGCAACAUUCCGAGGGGACCGUCCCUUCGGUAAUGGCGAAUGGGACCCA [U27G C64U] | 0.72
GGCCGACAUGGUCCCAGCCUCGUCGCUGGCGCCGGCUGGGCAACAUUCCGAGGGGACCGUCCCCUCGGUAAUGGCGAAUGGGACCCA [G6A C22G] | 0.0739
GGCCGGCAUGGUCCCAGCCUCCUCGCUGGCGCCGGCGGGGCAACAUUCCGAGGGGACCGUCCCCUCGGUAAUGGCGAAUGGGACCGA [U37G C86G] | 0.111
GGCCGGCAUGGUCCCAGCCUCCUCGCUGGCGCCGGCUGGGCAACAUUCCGAGAGAACCGUCCCCUCGGUAAUGGCGAAUGGGACCCA [G53A G55A] | 0.923
GGCCGGCAUGGUCCCAGCUUCCUCGCUGGCGCCGGCUGGGCAACAUUCCGAGGGGACCGUCCCCUCGGUAAUGGCGAAUGGGACACA [C19U C85A] | 0.0378
GGCCGGCAUGGUCCCAGCCUCCUCGCUGGCGCCGGCUGGGCAACAUUUCGAGGGGACCGUCCCCUCGGAAAUGGCGAAUGGGACCCA [C48U U69A] | 1.04
